In one experiment the target is T1, human CCR5 (human, UniProt P51681 1-352).
T1 construct: whole, on cells; also called huCCR5
Description: flow cytometry on CHO-K1 cells expressing human CCR5. The procedure: (§1) CHO cells overexpressing human or cynomolgus CX3CR1 were generated using techniques known in the art. Cells were harvested and resuspended in assay buffer (PBS, 2% FBS, 0.05% NaN3) and seeded separately in 384-well Bio-One V-bottom plates (Greiner, Cat. No. 781280), with a total of 2E04 cells seeded per well. After washing, serial dilutions of multivalent ISVD construct (starting from 250 nM, 3-fold dilution, 11 points, diluted in assay buffer), were added and incubated for 4 hours at 4° C. Binding was performed in the presence of 30 uM HSA (Sigma-Aldrich, Cat. No. A8763). Plates were then washed 3 times and cells were incubated with an anti-VHH mouse antibody (3300-fold diluted in assay buffer) for 30 minutes at 4′° C. […] Plates were finally washed 3 times and cells were resuspended in PI (Miltenyi Biotec, Cat. No. 130-093-233, 1000-fold diluted in assay buffer). Cell suspensions were analyzed with iQue Screener PLUS (Intellicyt). EC50s were estimated by dose response modelling. Curves were fit using 4 parameter logistic regression in GraphPad (GraphPad Software Inc.). A purified anti-human CX3CR1 antibody [K0124E1] (BioLegend, Cat. No. 355701/355702) was used as positive control to detect CX3CR1 expression on the cell surface.
Specificity of the 5 selected multivalent ISVD constructs for the huCX3CR1 receptor was evaluated by performing a FACS binding experiment on CHO-K1 cells expressing human CCR2 or human CCR5. CHO cells overexpressing huCCR2 or huCCR5 were generated using techniques known in the art. Binding of the multivalent ISVD constructs to huCR2 or huCCR5 expressed on the cell surfaces was examined by flow cytometry as described in example 5.1.
In general terms: In flow cytometry, cells or beads pass a laser one at a time.

The target in a further experiment is T2, human CX3CR1 V249I (human, UniProt P49238 1-355).
T2 construct: Transiently transfected in HEK293T cells (pcDNA3.1); also called huCX3CR1 variant V249I (Rs3732379); printed V2491 in the text
T2 sequence: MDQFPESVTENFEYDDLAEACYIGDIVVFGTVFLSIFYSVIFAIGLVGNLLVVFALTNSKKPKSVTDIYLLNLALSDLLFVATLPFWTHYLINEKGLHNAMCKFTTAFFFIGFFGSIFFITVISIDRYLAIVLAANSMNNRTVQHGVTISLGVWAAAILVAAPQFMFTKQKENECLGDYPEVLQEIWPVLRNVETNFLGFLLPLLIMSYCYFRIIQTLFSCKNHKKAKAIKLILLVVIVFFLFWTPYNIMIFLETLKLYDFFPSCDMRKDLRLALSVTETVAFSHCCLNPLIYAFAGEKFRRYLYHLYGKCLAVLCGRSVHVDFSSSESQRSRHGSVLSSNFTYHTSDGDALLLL
Description: flow cytometry on transiently transfected HEK293T cells, human CX3CR1 V249I. The procedure:
as §1, with “After” for “CHO cells overexpressing human or cynomolgus CX3CR1 were generated using techniques known in the art. Cells were harvested and resuspended in assay buffer (PBS, 2% FBS, 0.05% NaN3) and seeded separately in 384-well Bio-One V-bottom plates (Greiner, Cat. No. 781280), with a total of 2E04 cells seeded per well. After”
(§2) Two important SNPs are described in huCX3CR1, i.e. V2491 (Rs3732379) and T280M (Rs3732378), which might influence receptor activity and binding by the ISVD. […] Different combinations of these SNPs were introduced in human CX3CR1, and binding by 5 selected multivalent ISVD constructs was assessed with flow cytometry after transient transfection of the huCX3CR1 variants in HEK293T cells.
(§3) In short, the CX3CR1 constructs were cloned into pcDNA3.1 (ThermoFisher Scientific, Cat. No. V79020) and plasmid DNA was prepared from Escherichia coli TOP10 cells. HEK293T cells were seeded at a concentration of 1.5E06 cells per T75 flask and incubated overnight at 37° C. in DMEM medium (Gibco, Cat. No. 31966) supplemented with 10% FBS (Sigma. Cat. No. F7524). The medium was then replaced by Opti-MEM medium (Gibco, Cat. No. 31985). A mixture of 9 μg plasmid DNA, 27 μL Fugene 6 (Promega, Cat. No. E2691) in a final volume of 1 mL Opti-MEM was incubated for 15 minutes at room temperature and then added to the cells. After 3 hours incubation at 37° C., 10 mL of DMEM supplemented with 20% FBS was added, and incubation continued.

For experiment [1], the target named is T3, human CX3CR1 (human, UniProt P49238 1-355).
T3 construct: Overexpressed on CHO K1, Ba/F3 or HEK293T cells; also called huCX3CR1; hCX3CR1
T3 sequence: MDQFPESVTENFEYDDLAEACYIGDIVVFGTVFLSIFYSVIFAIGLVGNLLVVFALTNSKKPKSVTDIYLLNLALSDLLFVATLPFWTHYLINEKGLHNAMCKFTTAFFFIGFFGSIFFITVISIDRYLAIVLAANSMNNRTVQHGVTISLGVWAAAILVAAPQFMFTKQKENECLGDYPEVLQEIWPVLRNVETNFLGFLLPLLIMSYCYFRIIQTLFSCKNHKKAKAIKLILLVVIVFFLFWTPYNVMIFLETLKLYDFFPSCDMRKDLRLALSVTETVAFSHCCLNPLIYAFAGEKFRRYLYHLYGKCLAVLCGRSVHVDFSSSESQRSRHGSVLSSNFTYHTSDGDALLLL
The experiment is described as follows: flow cytometry on transiently transfected HEK293T cells, human CX3CR1 WT. The procedure: as §1, with “After” for “CHO cells overexpressing human or cynomolgus CX3CR1 were generated using techniques known in the art. Cells were harvested and resuspended in assay buffer (PBS, 2% FBS, 0.05% NaN3) and seeded separately in 384-well Bio-One V-bottom plates (Greiner, Cat. No. 781280), with a total of 2E04 cells seeded per well. After”
as §2, §3

The target in experiment [2] is T3, human CX3CR1. Description: flow cytometry on CHO K1 huCX3CR1 cells, 30 uM HSA. The procedure: as §1

T1 sequence (P51681 whole entry): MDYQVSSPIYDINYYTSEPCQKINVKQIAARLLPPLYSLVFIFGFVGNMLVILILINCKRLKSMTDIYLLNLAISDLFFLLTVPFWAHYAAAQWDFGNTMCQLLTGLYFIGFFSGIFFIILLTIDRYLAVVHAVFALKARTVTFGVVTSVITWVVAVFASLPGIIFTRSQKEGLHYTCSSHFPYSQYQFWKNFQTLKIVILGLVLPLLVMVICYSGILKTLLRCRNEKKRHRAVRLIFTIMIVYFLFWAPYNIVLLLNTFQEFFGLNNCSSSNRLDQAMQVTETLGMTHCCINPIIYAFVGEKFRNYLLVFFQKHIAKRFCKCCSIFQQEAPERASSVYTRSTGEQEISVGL

B1: A041600035 (VHH)
chain: DVQLVESGGGSVQPGGSLRLSCAASGSIFSSTAMAWYRQAPGKQRDLVAVISTVGITKYADSVKGRFTISRDNAKNTVYLQMNSLRPEDTALYYCTSDARRGWDTRYWGQGTLVTVSSGGGGSGGGSEVQLVESGGGSVQPGGSLRLSCAASGSIFSSTAMAWYRQAPGKQRDLVAVISTVGITKYADSVKGRFTISRDNAKNTVYLQMNSLRPEDTALYYCTSDARRGWDTRYWGQGTLVTVSSGGGGSGGGSEVQLVESGGGVVQPGGSLRLSCAASGFTFRSFGMSWVRQAPGKGPEWVSSISGSGSDTLYADSVKGRFTISRDNSKNTLYLQMNSLRPEDTALYYCTIGGSLSRSSQGTLVTVSSA
notes: Trivalent ISVD construct (two anti-CX3CR1 ISVDs, one anti-albumin ISVD), C-terminal alanine included in the entry; also called 54A12_SO (E1D)-9GS-54A12_SO-9GS-ALB23002-A
Regarding B1, the binding result with human CCR5 is reported as “no binding”. Further, the values for the EC50 in the experiment with human CX3CR1 V249I, with human CX3CR1 [1] and with human CX3CR1 [2] were 0.25 nM, 0.13 nM and 0.36 nM, respectively. The top with human CX3CR1 [2] amounted to 50900.

B2: A041600041 (VHH)
chain: DVQLVESGGGSVQPGGSLRLSCAASGSIFSSTAMAWYRQAPGKQRDLVAVISTVGITKYADSVKGRFTISRDNAKNTVYLQMNSLRPEDTALYYCTSDARRGWDTRYWGQGTLVTVSSGGGGSGGGSEVQLVESGGGSVQPGGSLRLSCAASGSIFSSTAMAWYRQAPGKRRDLVAAINTVGVTKYADSVKGRFTISRDNAKNTVYLQMNSLRPEDTALYYCTSDPRRGWDTRYWGQGTLVTVSSGGGGSGGGSEVQLVESGGGVVQPGGSLRLSCAASGFTFRSFGMSWVRQAPGKGPEWVSSISGSGSDTLYADSVKGRFTISRDNSKNTLYLQMNSLRPEDTALYYCTIGGSLSRSSQGTLVTVSSA
notes: Trivalent ISVD construct (two anti-CX3CR1 ISVDs, one anti-albumin ISVD), C-terminal alanine included in the entry; also called 54A12_SO (E1D)-9GS-66B02_SO-9GS-ALB23002-A
As for B2, the binding result with human CCR5 is reported as “no binding”. For the same molecule, the figures for the EC50 with human CX3CR1 V249I, with human CX3CR1 [1] and in the experiment with human CX3CR1 [2] were 0.089 nM, 0.16 nM and 0.22 nM, respectively. The molecule further came in with a top in the experiment with human CX3CR1 [2] of 41800.

B3: A041600025 (VHH)
chain: DVQLVESGGGSVQPGGSLRLSCAASGSIFSSTAMAWYRQAPGKQRDLVAVISTVGITKYADSVKGRFTISRDNAKNTVYLQMNSLRPEDTALYYCTSDARRGWDTRYWGQGTLVTVSSGGGGSGGGSEVQLVESGGGVVQPGGSLRLSCAASGFTFRSFGMSWVRQAPGKGPEWVSSISGSGSDTLYADSVKGRFTISRDNSKNTLYLQMNSLRPEDTALYYCTIGGSLSRSSQGTLVTVSSGGGGSGGGSEVQLVESGGGSVQPGGSLRLSCAASGSIFSSTAMAWYRQAPGKQRDLVAVISTVGITKYADSVKGRFTISRDNAKNTVYLQMNSLRPEDTALYYCTSDARRGWDTRYWGQGTLVTVSSA
notes: Trivalent ISVD construct (two anti-CX3CR1 ISVDs, one anti-albumin ISVD), C-terminal alanine included in the entry; also called 54A12_SO (E1D)-9GS-ALB23002-9GS-54A12_SO-A
Take B3: the binding result with human CCR5 is “no binding”. For the same molecule, in the experiment with human CX3CR1 [1], the EC50 – broadly, the midpoint of the concentration-response curve – was 0.065 nM. In the experiment with human CX3CR1 [2], this molecule came in with an EC50 of 0.46 nM and a top of 28700.

B4: A041600034 (VHH)
chain: DVQLVESGGGSVQPGGSLRLSCAASGSIFSSTAMAWYRQAPGKQRDLVAVISTVGITKYADSVKGRFTISRDNAKNTVYLQMNSLRPEDTALYYCTSDARRGWDTRYWGQGTLVTVSSGGGGSGGGSEVQLVESGGGVVQPGGSLRLSCAASGFTFRSFGMSWVRQAPGKGPEWVSSISGSGSDTLYADSVKGRFTISRDNSKNTLYLQMNSLRPEDTALYYCTIGGSLSRSSQGTLVTVSSGGGGSGGGSEVQLVESGGGSVQPGGSLRLSCAASGSIFSSTAMAWYRQAPGKRRDLVAAINTVGVTKYADSVKGRFTISRDNAKNTVYLQMNSLRPEDTALYYCTSDPRRGWDTRYWGQGTLVTVSSA
notes: Trivalent ISVD construct; also called 54A12_SO (E1D)-9GS-ALB23002-9GS-66B02_SO-A
Take B4: the binding result with human CCR5 is listed as “no binding”. In addition, the values for the EC50 with human CX3CR1 V249I, with human CX3CR1 [1] and with human CX3CR1 [2] were 0.045 nM, 0.1 nM and 0.63 nM, respectively. This molecule yielded a top with human CX3CR1 [2] of 28200.

B5: A041600085 (VHH)
chain: DVQLVESGGGLVQPGGSLRLSCAASGSIFSSTAMAWYRQAPGKRRDLVAAISTVGVTKYADSVKGRFTISRDNSKNTVYLQMNSLRPEDTAVYYCTSDPRRGWDTRYWGQGTLVTVSSGGGGSGGGSEVQLVESGGGVVQPGGSLRLSCAASGFTFRSFGMSWVRQAPGKGPEWVSSISGSGSDTLYADSVKGRFTISRDNSKNTLYLQMNSLRPEDTALYYCTIGGSLSRSSQGTLVTVSSGGGGSGGGSEVQLVESGGGLVQPGGSLRLSCAASGSIFSSTAMAWYRQAPGKRRDLVAAISTVGVTKYADSVKGRFTISRDNSKNTVYLQMNSLRPEDTAVYYCTSDPRRGWDTRYWGQGTLVTVSSA
notes: also called 307-9GS-ALB23002-9GS-307 (D1E)-A
In the case of B5, the binding result in the experiment with human CCR5 is listed as “no binding”. Moreover, the EC50 was 0.057 nM with human CX3CR1 V249I, 0.12 nM in the experiment with human CX3CR1 [1] and 0.17 nM with human CX3CR1 [2]. For the same molecule, in the experiment with human CX3CR1 [2], the top stood at 14600.

For the origin of these results see patent US20240117038A1 (Ablynx, published 2024).
